The supplement of paper PMC10567573

B1: ZER1 (parent)
chain: KEMARKVIEHCSNFKEENMDTSR
B2: FAM107A (parent)
chain: LQRVLEHRRRNQLIKKKKEELEAK
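Note: lentivirally expressed fusions sorted by FACS into six bins by GFP to DsRed ratio, PSI derived from sequencing read proportions per bin multiplied by bin number.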

Variants of: B1
Experiment: protein stability index of a GFP-peptide fusion (GPS, HEK-293T) (PSI 1-6); higher = more stable
Settings: c terminus: native
In the case of KQMARKVIEHCSNFKEENMDTSR, the protein stability index is reported as 3.53. Work on KAMARKVIEHCSNFKEENMDTSR yielded a protein stability index of 3.23. KEMARKVIEHCSNMKEENMDTSR gave a protein stability index of 4.4. For KEMARKVIEHCSNIKEENMDTSR, the protein stability index was 4.35. KEMARKVIEHCSNYKEENMDTSR showed a protein stability index of 3.56. In the case of KEMARKVIEHCSNLKEENMDTSR, the protein stability index is reported as 4.03. Variant KEMARKVIEHCSNFKEENMLTSR has a protein stability index of 1.87. In the case of KEMARKVIEHCSNFKEENMMTSR, the protein stability index is reported as 1.91. With KEMARKVIEHCSNFKEENMYTSR the protein stability index was 2.89. In the case of KEMARKVIEHCSNFKEENMRTSR, the protein stability index is reported as 2.13. For KEMARKVIEHCSNFNEENMDTSR, the protein stability index was 3.64. In the case of KEMARKVIEHCSNFTEENMDTSR, the protein stability index is reported as 4.15. KEMARKVIEHCSNFSEENMDTSR gave a protein stability index of 3.34. Variant KEMARKVIEHCSNFKAENMDTSR has a protein stability index of 2.9. KEMARKVIEHCSNFKLENMDTSR showed a protein stability index of 2.52. Work on KEMARKVIEHCSNFKFENMDTSR yielded a protein stability index of 2.46. Work on KEMARKVIEHCSNFKGENMDTSR yielded a protein stability index of 3.83. KEMARKVIEHCSNFKEENHDTSR gave a protein stability index of 3.77. KEMARKVIEHCSNFKEENLDTSR gave a protein stability index of 3.47. For KEMARKTIEHCSNFKEENMDTSR, the protein stability index was 4.89. Work on KEMTRKVIEHCSNFKEENMDTSR yielded a protein stability index of 3.94. In the case of KEMIRKVIEHCSNFKEENMDTSR, the protein stability index is reported as 2.32. Variant KEMARKVVEHCSNFKEENMDTSR has a protein stability index of 4.35. Work on KEMARKVKEHCSNFKEENMDTSR yielded a protein stability index of 4.91. KEMARKVNEHCSNFKEENMDTSR showed a protein stability index of 4.98. For KEMARKVSEHCSNFKEENMDTSR, the protein stability index was 3.92. Work on KEMARKVAEHCSNFKEENMDTSR yielded a protein stability index of 4.58. KEMARKVIEHCMNFKEENMDTSR showed a protein stability index of 2.54. In the case of KEMARKVIEHCSNFKEENMDTDR, the protein stability index is reported as 4.07. KEMARKVIEHCSNFKEENMDTKR showed a protein stability index of 2.86. For KEMARKVIEHCSNFKEENMDTCR, the protein stability index was 2.4. Work on KEMARKVIEHCSNFKEENMDTIR yielded a protein stability index of 3.72. In the case of KEMARKVIEHCSNFKEENMDTGR, the protein stability index is reported as 3.48. For KEMARKVIEHCSNFKEENMDTHR, the protein stability index was 3.09. For KEMARKVIMHCSNFKEENMDTSR, the protein stability index was 2.96. For KEMARKVINHCSNFKEENMDTSR, the protein stability index was 4.29. KEMARKVIYHCSNFKEENMDTSR gave a protein stability index of 3.16. With KEMARKVIEHCSNFKEENMDISR the protein stability index was 3.16. Work on KEMARKVIEHCSNFKEENMDKSR yielded a protein stability index of 1.68. With KEMARKVIEHCSNFKEENMDDSR the protein stability index was 5.16. KEMARKVIEHCSNFKEENMDTSK showed a protein stability index of 5.27. KEMARKVIEHCSNFKEENMDTSM gave a protein stability index of 4.6. KEMARKVIEHCSNFKEENMDTSL gave a protein stability index of 4.86. For KEMARKVIEHCSNFKEENMDTSF, the protein stability index was 4.69. KEMARKVIEHCSNFKEVNMDTSR showed a protein stability index of 2.74. With KEMARKVIEHCSNFKEPNMDTSR the protein stability index was 2.93. With KESARKVIEHCSNFKEENMDTSR the protein stability index was 4.64. KERARKVIEHCSNFKEENMDTSR gave a protein stability index of 3.98. KEMAGKVIEHCSNFKEENMDTSR gave a protein stability index of 3.65. KEMAKKVIEHCSNFKEENMDTSR showed a protein stability index of 4.15. KEMARKVIERCSNFKEENMDTSR showed a protein stability index of 3.59. Work on KEMARKVIELCSNFKEENMDTSR yielded a protein stability index of 1.76. Variant VEMARKVIEHCSNFKEENMDTSR has a protein stability index of 3.26. Work on KEMARKVIEHCSNFKEEIMDTSR yielded a protein stability index of 3.31. With KEMARKVIEHCSNFKEEEMDTSR the protein stability index was 4.22. With KEMARKVIEHCSNFKEECMDTSR the protein stability index was 3.3. Variant KEMARKVIEHCSNFKEEDMDTSR has a protein stability index of 3.52. Variant KEMARKVIEHCSNFKEERMDTSR has a protein stability index of 2. With KEMARKVIEHCSNFKEEMMDTSR the protein stability index was 3.54. KEMARGVIEHCSNFKEENMDTSR showed a protein stability index of 4.21. KEMARTVIEHCSNFKEENMDTSR showed a protein stability index of 2.74. Variant KEMARIVIEHCSNFKEENMDTSR has a protein stability index of 2.36. In the case of KEMARAVIEHCSNFKEENMDTSR, the protein stability index is reported as 3.58. Variant KEMARDVIEHCSNFKEENMDTSR has a protein stability index of 4.19. With KEMAREVIEHCSNFKEENMDTSR the protein stability index was 4.5. Work on KEMARKVIEHSSNFKEENMDTSR yielded a protein stability index of 3.96. With KEMARKVIEHGSNFKEENMDTSR the protein stability index was 4.63.

Variants of: B2
Experiment: as above
Settings: c terminus: a fixed tail appended
In the case of LPRVLEHRRRNQLIKKKKEELEAK, the protein stability index is reported as 3.98. For LKRVLEHRRRNQLIKKKKEELEAK, the protein stability index was 4.01. LVRVLEHRRRNQLIKKKKEELEAK gave a protein stability index of 2.41. Work on LQRVLEHRRRNQQIKKKKEELEAK yielded a protein stability index of 3.73. With LQRVLEHRRRNQNIKKKKEELEAK the protein stability index was 3.6. Work on LQRVLEHRRRNQFIKKKKEELEAK yielded a protein stability index of 3.83. LQRVLEHRRRNQPIKKKKEELEAK showed a protein stability index of 4.07. Variant LQRVLEHRRRNQHIKKKKEELEAK has a protein stability index of 4.18. LQRVLEHRRRNQLIKKKIEELEAK showed a protein stability index of 2.74. Variant LQRVLEHRRRNQLIKKKYEELEAK has a protein stability index of 3.11. Work on LQRVLEHRRRNQLIKKKAEELEAK yielded a protein stability index of 4.54. With LQRVLEHRRRNQLIKKKFEELEAK the protein stability index was 4.52. For LQRVLEHRRRNQLIKKKMEELEAK, the protein stability index was 3.57. With LQRVLEHRRRNQLIKKKKEELELK the protein stability index was 3.99. LQRVLEHRRRNQLIKKKKEELEQK gave a protein stability index of 3.87. In the case of LQRVLEHRRRNQLIKKKKEELEGK, the protein stability index is reported as 3.7. Variant LQRVLEHRRRNQLIKKKKEELETK has a protein stability index of 3.11. With LQRVLEHRRRNQLIKKKKEELEDK the protein stability index was 3.75. For LQRVLEHRRRNQLIKKKKEELEKK, the protein stability index was 2.86. Work on LQWVLEHRRRNQLIKKKKEELEAK yielded a protein stability index of 2.27. Variant LQFVLEHRRRNQLIKKKKEELEAK has a protein stability index of 3.04. Variant LQKVLEHRRRNQLIKKKKEELEAK has a protein stability index of 3.69. LQAVLEHRRRNQLIKKKKEELEAK showed a protein stability index of 3.21. LQDVLEHRRRNQLIKKKKEELEAK gave a protein stability index of 4.5. With LQEVLEHRRRNQLIKKKKEELEAK the protein stability index was 5.32. LQRVLEIRRRNQLIKKKKEELEAK showed a protein stability index of 3.06. With LQRVLENRRRNQLIKKKKEELEAK the protein stability index was 3.67. For LQRVLEERRRNQLIKKKKEELEAK, the protein stability index was 3.9.
